# Assay results published in publication PMC10786891, “Massively parallel profiling of RNA-targeting CRISPR-Cas13d”.
# T1: EsCas13d, nuclease-dead (Eubacterium siraeum, UniProt B0MS50, R295A;H300A;R849A;H854A)
# T1 sequence: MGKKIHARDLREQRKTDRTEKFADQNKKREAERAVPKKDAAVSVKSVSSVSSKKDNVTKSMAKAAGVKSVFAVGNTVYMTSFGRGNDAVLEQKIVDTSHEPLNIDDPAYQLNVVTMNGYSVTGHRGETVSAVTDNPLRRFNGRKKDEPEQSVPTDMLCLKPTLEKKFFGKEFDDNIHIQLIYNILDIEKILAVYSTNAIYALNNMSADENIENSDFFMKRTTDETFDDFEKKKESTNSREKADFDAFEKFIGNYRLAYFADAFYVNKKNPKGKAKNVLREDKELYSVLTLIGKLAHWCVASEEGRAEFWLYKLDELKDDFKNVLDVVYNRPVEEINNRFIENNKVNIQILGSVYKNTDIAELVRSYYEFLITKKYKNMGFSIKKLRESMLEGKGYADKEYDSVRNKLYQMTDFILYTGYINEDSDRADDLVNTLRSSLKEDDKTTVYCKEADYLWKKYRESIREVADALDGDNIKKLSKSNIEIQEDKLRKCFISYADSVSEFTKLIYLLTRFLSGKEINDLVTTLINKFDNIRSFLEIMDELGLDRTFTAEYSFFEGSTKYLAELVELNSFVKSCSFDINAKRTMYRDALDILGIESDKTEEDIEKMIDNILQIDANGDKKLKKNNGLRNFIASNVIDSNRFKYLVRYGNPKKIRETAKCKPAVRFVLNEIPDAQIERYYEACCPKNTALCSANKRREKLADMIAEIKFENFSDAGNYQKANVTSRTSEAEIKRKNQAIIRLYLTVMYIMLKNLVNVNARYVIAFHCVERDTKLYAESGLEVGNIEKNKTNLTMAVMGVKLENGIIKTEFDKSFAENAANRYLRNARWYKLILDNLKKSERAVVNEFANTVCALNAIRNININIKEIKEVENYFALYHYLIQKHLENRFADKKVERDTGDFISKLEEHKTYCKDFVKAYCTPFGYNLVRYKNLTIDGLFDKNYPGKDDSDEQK
# B1: target 1 insU 3' of 6,insG 3' of 6 (mixed)
# RNA 1: CACCCGUGCAAAAAUGCAGGGGUCUAAAACUGAGCGGAUAACCUCUCUAUGG
# RNA 2: GGGAAUGGAUCCACAUCUACGAAUUCGUACCAUAGAGAGGUUAUCCUGGCUCACCGAGAUCGGAAGAGCACACGU
# B2: target 1 insC 3' of 8,insG 3' of 4 (mixed)
# RNA 1: CACCCGUGCAAAAAUGCAGGGGUCUAAAACUGAGCGGAUAACCUCUCUAUGG
# RNA 2: GGGAAUGGAUCCACAUCUACGAAUUCGUACCAUAGAGAGGUUAUCCCGCGUCACCGAGAUCGGAAGAGCACACGU
# B3: target 1 insG 3' of 11,insU 3' of 4 (mixed)
# RNA 1: CACCCGUGCAAAAAUGCAGGGGUCUAAAACUGAGCGGAUAACCUCUCUAUGG
# RNA 2: GGGAAUGGAUCCACAUCUACGAAUUCGUACCAUAGAGAGGUGUAUCCGCUUCACCGAGAUCGGAAGAGCACACGU
# B4: target 1 insA 3' of 13,insU 3' of 5 (mixed)
# RNA 1: CACCCGUGCAAAAAUGCAGGGGUCUAAAACUGAGCGGAUAACCUCUCUAUGG
# RNA 2: GGGAAUGGAUCCACAUCUACGAAUUCGUACCAUAGAGAGAGUUAUCCGUCUCACCGAGAUCGGAAGAGCACACGU
# B5: target 1 U11A,C22A (mixed)
# RNA 1: CACCCGUGCAAAAAUGCAGGGGUCUAAAACUGAGCGGAUAACCUCUCUAUGG
# RNA 2: GGGAAUGGAUCCACAUCUACGAAUUCGUAACAUAGAGAGGAUAUCCGCUCACCGAGAUCGGAAGAGCACACGU
# B6: target 1 G17U,C22A (mixed)
# RNA 1: CACCCGUGCAAAAAUGCAGGGGUCUAAAACUGAGCGGAUAACCUCUCUAUGG
# RNA 2: GGGAAUGGAUCCACAUCUACGAAUUCGUAACAUAUAGAGGUUAUCCGCUCACCGAGAUCGGAAGAGCACACGU
# B7: target 1 insU 3' of 17,insU 3' of 17 (mixed)
# RNA 1: CACCCGUGCAAAAAUGCAGGGGUCUAAAACUGAGCGGAUAACCUCUCUAUGG
# RNA 2: GGGAAUGGAUCCACAUCUACGAAUUCGUACCAUAGUUAGAGGUUAUCCGCUCACCGAGAUCGGAAGAGCACACGU
# B8: target 1 del11,del14 (mixed)
# RNA 1: CACCCGUGCAAAAAUGCAGGGGUCUAAAACUGAGCGGAUAACCUCUCUAUGG
# RNA 2: GGGAAUGGAUCCACAUCUACGAAUUCGUACCAUAGAGGGUAUCCGCUCACCGAGAUCGGAAGAGCACACGU
# B9: target 1 del8,del16 (mixed)
# RNA 1: CACCCGUGCAAAAAUGCAGGGGUCUAAAACUGAGCGGAUAACCUCUCUAUGG
# RNA 2: GGGAAUGGAUCCACAUCUACGAAUUCGUACCAUAGGAGGUUACCGCUCACCGAGAUCGGAAGAGCACACGU
# B10: target 1 A14G,G15A (mixed)
# RNA 1: CACCCGUGCAAAAAUGCAGGGGUCUAAAACUGAGCGGAUAACCUCUCUAUGG
# RNA 2: GGGAAUGGAUCCACAUCUACGAAUUCGUACCAUAGAAGGGUUAUCCGCUCACCGAGAUCGGAAGAGCACACGU
# B11: target 1 insA 3' of 3,insG 3' of 3 (mixed)
# RNA 1: CACCCGUGCAAAAAUGCAGGGGUCUAAAACUGAGCGGAUAACCUCUCUAUGG
# RNA 2: GGGAAUGGAUCCACAUCUACGAAUUCGUACCAUAGAGAGGUUAUCCGCUAGCACCGAGAUCGGAAGAGCACACGU
# B12: target 1 C6A,G17U (mixed)
# RNA 1: CACCCGUGCAAAAAUGCAGGGGUCUAAAACUGAGCGGAUAACCUCUCUAUGG
# RNA 2: GGGAAUGGAUCCACAUCUACGAAUUCGUACCAUAUAGAGGUUAUCAGCUCACCGAGAUCGGAAGAGCACACGU
# B13: target 1 U3G,U8G (mixed)
# RNA 1: CACCCGUGCAAAAAUGCAGGGGUCUAAAACUGAGCGGAUAACCUCUCUAUGG
# RNA 2: GGGAAUGGAUCCACAUCUACGAAUUCGUACCAUAGAGAGGUUAGCCGCGCACCGAGAUCGGAAGAGCACACGU
# B14: target 1 insC 3' of 13,insG 3' of 4 (mixed)
# RNA 1: CACCCGUGCAAAAAUGCAGGGGUCUAAAACUGAGCGGAUAACCUCUCUAUGG
# RNA 2: GGGAAUGGAUCCACAUCUACGAAUUCGUACCAUAGAGAGCGUUAUCCGCGUCACCGAGAUCGGAAGAGCACACGU
# B15: target 1 insA 3' of 6,insA 3' of 5 (mixed)
# RNA 1: CACCCGUGCAAAAAUGCAGGGGUCUAAAACUGAGCGGAUAACCUCUCUAUGG
# RNA 2: GGGAAUGGAUCCACAUCUACGAAUUCGUACCAUAGAGAGGUUAUCCAGACUCACCGAGAUCGGAAGAGCACACGU
# B16: target 1 insA 3' of 5,insC 3' of 5 (mixed)
# RNA 1: CACCCGUGCAAAAAUGCAGGGGUCUAAAACUGAGCGGAUAACCUCUCUAUGG
# RNA 2: GGGAAUGGAUCCACAUCUACGAAUUCGUACCAUAGAGAGGUUAUCCGACCUCACCGAGAUCGGAAGAGCACACGU
# B17: target 1 insU 3' of 14,insA 3' of 13 (mixed)
# RNA 1: CACCCGUGCAAAAAUGCAGGGGUCUAAAACUGAGCGGAUAACCUCUCUAUGG
# RNA 2: GGGAAUGGAUCCACAUCUACGAAUUCGUACCAUAGAGAUGAGUUAUCCGCUCACCGAGAUCGGAAGAGCACACGU
# B18: target 1 insA 3' of 5,insA 3' of 4 (mixed)
# RNA 1: CACCCGUGCAAAAAUGCAGGGGUCUAAAACUGAGCGGAUAACCUCUCUAUGG
# RNA 2: GGGAAUGGAUCCACAUCUACGAAUUCGUACCAUAGAGAGGUUAUCCGACAUCACCGAGAUCGGAAGAGCACACGU
# B19: target 1 insA 3' of 17,insC 3' of 11 (mixed)
# RNA 1: CACCCGUGCAAAAAUGCAGGGGUCUAAAACUGAGCGGAUAACCUCUCUAUGG
# RNA 2: GGGAAUGGAUCCACAUCUACGAAUUCGUACCAUAGAAGAGGUCUAUCCGCUCACCGAGAUCGGAAGAGCACACGU
# B20: target 1 A16G (mixed)
# RNA 1: CACCCGUGCAAAAAUGCAGGGGUCUAAAACUGAGCGGAUAACCUCUCUAUGG
# RNA 2: GGGAAUGGAUCCACAUCUACGAAUUCGUACCAUAGGGAGGUUAUCCGCUCACCGAGAUCGGAAGAGCACACGU
# B21: target 1 C6U,A18C (mixed)
# RNA 1: CACCCGUGCAAAAAUGCAGGGGUCUAAAACUGAGCGGAUAACCUCUCUAUGG
# RNA 2: GGGAAUGGAUCCACAUCUACGAAUUCGUACCAUCGAGAGGUUAUCUGCUCACCGAGAUCGGAAGAGCACACGU
# B22: target 1 insU 3' of 21,insA 3' of 6 (mixed)
# RNA 1: CACCCGUGCAAAAAUGCAGGGGUCUAAAACUGAGCGGAUAACCUCUCUAUGG
# RNA 2: GGGAAUGGAUCCACAUCUACGAAUUCGUACCUAUAGAGAGGUUAUCCAGCUCACCGAGAUCGGAAGAGCACACGU
# B23: target 1 A16C,A20U (mixed)
# RNA 1: CACCCGUGCAAAAAUGCAGGGGUCUAAAACUGAGCGGAUAACCUCUCUAUGG
# RNA 2: GGGAAUGGAUCCACAUCUACGAAUUCGUACCUUAGCGAGGUUAUCCGCUCACCGAGAUCGGAAGAGCACACGU
# B24: target 1 insC 3' of 17,insA 3' of 5 (mixed)
# RNA 1: CACCCGUGCAAAAAUGCAGGGGUCUAAAACUGAGCGGAUAACCUCUCUAUGG
# RNA 2: GGGAAUGGAUCCACAUCUACGAAUUCGUACCAUAGCAGAGGUUAUCCGACUCACCGAGAUCGGAAGAGCACACGU
# B25: target 1 insA 3' of 8,insU 3' of 1 (mixed)
# RNA 1: CACCCGUGCAAAAAUGCAGGGGUCUAAAACUGAGCGGAUAACCUCUCUAUGG
# RNA 2: GGGAAUGGAUCCACAUCUACGAAUUCGUACCAUAGAGAGGUUAUACCGCUCAUCCGAGAUCGGAAGAGCACACGU
# B26: target 1 U8G,G12U (mixed)
# RNA 1: CACCCGUGCAAAAAUGCAGGGGUCUAAAACUGAGCGGAUAACCUCUCUAUGG
# RNA 2: GGGAAUGGAUCCACAUCUACGAAUUCGUACCAUAGAGAGUUUAGCCGCUCACCGAGAUCGGAAGAGCACACGU
# B27: target 1 insC 3' of 16,insC 3' of 8 (mixed)
# RNA 1: CACCCGUGCAAAAAUGCAGGGGUCUAAAACUGAGCGGAUAACCUCUCUAUGG
# RNA 2: GGGAAUGGAUCCACAUCUACGAAUUCGUACCAUAGACGAGGUUAUCCCGCUCACCGAGAUCGGAAGAGCACACGU
# B28: target 1 insC 3' of 22,insG 3' of 4 (mixed)
# RNA 1: CACCCGUGCAAAAAUGCAGGGGUCUAAAACUGAGCGGAUAACCUCUCUAUGG
# RNA 2: GGGAAUGGAUCCACAUCUACGAAUUCGUACCCAUAGAGAGGUUAUCCGCGUCACCGAGAUCGGAAGAGCACACGU
# Molecular target: T1, EsCas13d, nuclease-dead
# Test: crRNA (strand 1, pre-loaded); Mg2+; 40 mM Tris-HCl pH 7.5, 150 mM NaCl, 6 mM MgCl2, 1 mM DTT, 0.1% Tween-20, 0.2 mg/ml BSA; 25 C; 10 min per concentration, then washed
# Settings: tags: His6-TwinStrep-SUMO cleaved; N-terminal SNAP kept (SNAP-Surface 488); label: 3' end held by stalled T7 RNA polymerase
row,Binder,Kd [nM]
1,B1,13.1 ± 0.5
2,B2,12.8 ± 0.8
3,B3,65 ± 15
4,B4,4.34 ± 0.32
5,B5,47 ± 6
6,B6,31.3 ± 3
7,B7,27.7 ± 3.2
8,B8,32.4 ± 1.8
9,B9,71 ± 18
10,B10,14.8 ± 1.5
11,B11,6.2 ± 0.5
12,B12,18.7 ± 1.2
13,B13,10.8 ± 0.4
14,B14,5.33 ± 0.22
15,B15,53 ± 6
16,B16,11.3 ± 1
17,B17,9.2 ± 0.8
18,B18,9.8 ± 1.1
19,B19,51 ± 10
20,B20,29.4 ± 1.4
21,B21,58 ± 7
22,B22,28.2 ± 2.3
23,B23,85 ± 29
24,B24,23 ± 4
25,B25,12.9 ± 0.6
26,B26,11.8 ± 1.3
27,B27,~90
28,B28,12.8 ± 1.1
